# Publication PMC3575409, “Identification of a Novel Protein-Protein Interaction Motif Mediating Interaction of GPCR-Associated Sorting Proteins with G Protein-Coupled Receptors” (PLoS ONE, 2013)
# B1: mutant 380–1395: truncated mutant of GASP-1 that lacks the N-terminal part (protein)
# chain: MTKEEAKTKARARAKQEARSEEEALIGTWFWATDESSMADEASIESSLQVEDESIIGSWFWTEEEASMGTGASSKSRPRTDGERIGDSLFGAREKTSMKTGAEATSESILAADDEQVIIGSWFWAGEEVNQEAEEETIFGSWFWVIDAASVESGVGVSCESRTRSEEEEVIGPWFWSGEQVDIEAGIGEEARPGAEEETIFGSWFWAENQTYMDCRAETSCDTMQGAEEEEPIIGSWFWTRVEACVEGDVNSKSSLEDKEEAMIPCFGAKEEVSMKHGTGVRCRFMAGAEETNNKSCFWAEKEPCMYPAGGGSWKSRPEEEEDIVNSWFWSRKYTKPEAIIGSWLWATEESNIDGTGEKAKLLTEEETIINSWFWKEDEAISEATDREESRPEAEEGDIIGSWFWAGEEDRLEPAAETREEDRLAAEKEGIVGSWFGAREETIRREAGSCSKSSPKAEEEEVIIGSWFWEEEASPEAVAGVGFESKPGTEEEEITVGSWFWPEEEASIQAGSQAVEEMESETEEETIFGSWFWDGKEVSEEAGPCCVSKPEDDEEMIVESWFWSRDKAIKETGTVATCESKPENEEGAIVGSWFEAEDEVDNRTDNGSNCGSRTLADEDEAIVGSWFWAGDEAHFESNPSPVFRAICRSTCSVEQEPDPSRRPQSWEEVTVQFKPGPWGRVGFPSISPFRFPKEAASLFCEMFGGKPRNMVLSPEGEDQESLLQPDQPSPEFPFQYDPSYRSVQEIREHLRAKESTEPESSSCNCIQCELKIGSEEFEELLLLMEKIRDPFIHEISKIAMGMRSASQFTRDFIRDSGVVSLIETLLNYPSSRVRTSFLENMIRMAPPYPNLNIIQTYICKVCEETLAYSVDSPEQLSGIRMIRHLTTTTDYHTLVANYMSGFLSLLATGNAKTRFHVLKMLLNLSENLFMTKELLSAEAVSEFIGLFNREETNDNIQIVLAIFENIGNNIKKETVFSDDDFNIEPLISAFHKVEKFAKELQGKTDNQNDPEGDQEN
# modifications: [35S]-methionine labelled
# B2: mutant 1025–1395: truncated mutant of GASP-1 corresponding to the conserved C-terminal domain (protein)
# chain: ICRSTCSVEQEPDPSRRPQSWEEVTVQFKPGPWGRVGFPSISPFRFPKEAASLFCEMFGGKPRNMVLSPEGEDQESLLQPDQPSPEFPFQYDPSYRSVQEIREHLRAKESTEPESSSCNCIQCELKIGSEEFEELLLLMEKIRDPFIHEISKIAMGMRSASQFTRDFIRDSGVVSLIETLLNYPSSRVRTSFLENMIRMAPPYPNLNIIQTYICKVCEETLAYSVDSPEQLSGIRMIRHLTTTTDYHTLVANYMSGFLSLLATGNAKTRFHVLKMLLNLSENLFMTKELLSAEAVSEFIGLFNREETNDNIQIVLAIFENIGNNIKKETVFSDDDFNIEPLISAFHKVEKFAKELQGKTDNQNDPEGDQEN
# modifications: [35S]-methionine labelled
# B3: mutant 470–838: truncated GASP-2 corresponding to the C-terminal domain (protein)
# chain: KVSDRFRDAAEELNASSRPQTWDEVTVEFKPGLFHGVGFRSTSPFGIPEEASEMLEAKPKNLELSPEGEEQESLLQPDQPSPEFTFQYDPSYRSVREIREHLRARESAESESWSCSCIQCELKIGSEEFEEFLLLMDKIRDPFIHEISKIAMGMRSASQFTRDFIRDSGVVSLIETLLNYPSSRVRTSFLENMIHMAPPYPNLNMIETFICQVCEETLAHSVDSLEQLTGIRMLRHLTMTIDYHTLIANYMSGFLSLLTTANARTKFHVLKMLLNLSENPAVAKKLFSAKALSIFVGLFNIEETNDNIQIVIKMFQNISNIIKSGKMSLIDDDFSLEPLISAFREFEELAKQLQAQIDNQNDPEVGQQS
# modifications: [35S]-methionine labelled
# B4: GASP-3: member of the GASP family, two GASP motifs (protein)
# chain: MAGTKNKTRAQAKTEKKAAIQAKAGAEREATGVVRPVAKTRAKAKAKTGSKTDAVAEMKAVSKNKVVAETKEGALSEPKTLGKAMGDFTPKAGNESTSSTCKNEAGTDAWFWAGEEATINSWFWNGEEAGNSFSTKNDKPEIGAQVCAEELEPAAGADCKPRSGAEEEEEENVIGNWFWEGDDTSFDPNPKPVSRIVKPQPVYEINEKNRPKDWSEVTIWPNAPAVTPAVLGFRSQAPSEASPPSYIVLASAEENACSLPVATACRPSRNTRSCSQPIPECRFDSDPCIQTIDEIRRQIRIREVNGIKPFACPCKMECYMDSEEFEKLVSLLKSTTDPLIHKIARIAMGVHNVHPFAQEFINEVGVVTLIESLLSFPSPEMRKKTVITLNPPSGDERQRKIELHVKHMCKETMSFPLNSPGQQSGLKILGQLTTDFVHHYIVANYFSELFHLLSSGNCKTRNLVLKLLLNMSENPTAARDMINMKALAALKLIFNQKEAKANLVSGVAIFINIKEHIRKGSIVVVDHLSYNTLMAIFREVKEIIETM
# modifications: [35S]-methionine labelled
# Experiments:
# Assay type in all cases: binding
# GST-fused ADRB1 C-tail = experiment: GST-pull down, ADRB1 C-tail; conditions: for interaction of truncated GASP-1 with ADRB1 C-tail (words): compared with full-length GASP-1
# Source text: (§1) cDNAs encoding the cytoplasmic C-tail of 14 GPCRs and 2 one-transmembrane receptors were cloned into the pGEX-2T prokaryotic expression vector downstream the GST sequence. The following pGEX constructs were engineered: pGEX-DOR encoding residues 314–372 of the δ-opioid receptor (referring to Swiss-Prot accession number U10504), pGEX-MOR encoding residues 334–400 of the µ-opioid receptor (L29301), pGEX-KOR encoding residues 326–380 of the κ–opioid receptor (U17298), pGEX-ORL1 encoding residues 315–370 of the opioid receptor-like 1 (X77130), pGEX-M1 encoding residues 414–460 of the muscarinic M1 acetylcholine receptor (X52068), pGEX-M2 encoding residues 436–466 of the muscarinic M2 acetylcholine receptor (M16404), pGEX- ADRB1 encoding residues 373–477 of the β1 adrenergic receptor (J03019), pGEX-ADRB2 encoding residues 322–413 of the β2 adrenergic receptor (P07550), pGEX-CALCR encoding residues 407–490 of the calcitonin receptor (L00587), pGEX-CNR2 encoding residues 295–360 of the cannabinoid type 2 receptor (P34972), pGEX-5HT7 encoding residues 380–445 of the 5-hydroxytryptamine 7 receptor (L21195), pGEX-H2 encoding residues 284–349 of the histamine 2 receptor (S57565), pGEX-TXA2 encoding residues 304–343 of the α isoform of the thromboxane A2 receptor (D38081), pGEX-FZ4 encoding residues 493–537 of the frizzled 4 receptor (AB032417), pGEX-TGFβ encoding residues 805–849 of the type III transforming growth factor b receptor (L07594), pGEX-IGF1 encoding residues 1268–1367 of the insulin growth factor I receptor (X04434). Free GST was produced by using the pGEX-4T3 expression vector without insert. The same plasmid was used to clone the cDNA encoding a central domain of GASP-1, corresponding to amino acids 380 to 1073, downstream the GST sequence. All these plasmids were transformed into the Escherichia coli BL21 strain and expression was induced using 1mM of isopropylthiogalactoside for 2 h at 37°C. Bacteria were then pelleted, resuspended in PBS supplemented with cOmplete protease inhibitors (Roche), lysed at 1.5 kbar using a basic Z cell disrupter (constant system) and finally the lysates were cleared by centrifugation (10,000g, 15 min, 4°C).
# (§2) cDNAs encoding GASP-1 and GASP-2 were cloned into the pcDNA3 eukaryotic expression vectors. cDNAs encoding GASP-3, -6, -7, and -9 were subcloned into pcDNA3.1 vectors. All the clones were controlled by DNA sequencing. The in vitro production was performed by using the TNT Quick-coupled Transcription/Translation T7 kit (Promega) in presence of [^35S]-Methionine according to the instructions from the manufacturer.
# (§3) GST-fusion proteins were immobilized on glutathione-coupled Sepharose beads (GE Healthcare) for 1 h at 4°C and incubated with [^35S]-labelled in vitro translated GASP proteins or their truncated or mutated forms in ice-cold binding buffer containing: 20 mM Tris-HCl pH 7.4, 150 mM NaCl, 1 mM EDTA, 1 mM DTT, 10% glycerol and 1% Triton X-100. The mixture was incubated for 1 h at 4°C with gentle rocking. The beads were washed five times with the same ice-cold buffer, resuspended in 30 µl SDS-PAGE sample buffer, incubated 10 min at 65°C, and pelleted for 60 s at 3000 g. The supernatants were then analyzed by SDS-PAGE, the gels were stained with Coomassie blue to visualize GST-fusion proteins, dried and analyzed using a Phosphor-imager (Personal Molecular Imager FX, Biorad) to visualize [^35S]-labelled GASPs. Quantification was performed with the Quantity One software (Biorad). GST-pull down quantification data were analyzed using GraphPad Prism 4.03 (GraphPad Software). Quantifications presented are means of at least three independent experiments.
# GST-fused M1 C-tail = experiment: GST-pull down, M1 C-tail; conditions: for interaction of truncated GASP-1 with M1 C-tail (words): compared with full-length GASP-1
# Source text: as §1, §2, §3
# GST-fused DOR C-tail = experiment: GST-pull down, DOR C-tail; conditions: for interaction of truncated GASP-1 with DOR C-tail: compared with full-length GASP-1
# Source text: as §1, §2, §3
# GST-fused CALCR C-tail = experiment: GST-pull down, CALCR C-tail; conditions: compared to wild-type GASP-2
# Procedure: (§4) cDNAs encoding the cytoplasmic C-tail of 14 GPCRs and 2 one-transmembrane receptors were cloned into the pGEX-2T prokaryotic expression vector downstream the GST sequence. […]
# as §3, with “The mixture was incubated for 1 h at 4°C with gentle rocking. The beads were washed five times with the same ice-cold buffer, resuspended in 30 µl SDS-PAGE sample buffer, incubated 10 min at 65°C, and pelleted for 60 s at 3000 g.” left out
# GST-fused FZ4 C-tail = experiment: GST-pull down, FZ4 C-tail; conditions: strong = >10% of GASP input
# Procedure: as §4
# as §3, with “The mixture was incubated for 1 h at 4°C with gentle rocking. The beads were washed five times with the same ice-cold buffer, resuspended in 30 µl SDS-PAGE sample buffer, incubated 10 min at 65°C, and pelleted for 60 s at 3000 g.” left out
# [1] = tested on: GST-fused TGFβ (type III transforming growth factor β receptor) C-tail; experiment: GST-pull down, TGFβ C-tail; conditions: non-GPCR control
# Source text: as §1, §2, §3
# [2] = tested on: GST-fused IGF1 (insulin growth factor I receptor) C-tail; experiment: GST-pull down, IGF1 C-tail; conditions: non-GPCR control
# Source text: as §1, §2, §3
# GST-fused GPCR C-tails = experiment: GST-pull down, GPCR C-tails
# Source text: as §1, §2
# as §3, with “experiments. […]” for “experiments.”
molecule,measurement,setting,value
B1,interaction of truncated GASP-1 with ADRB1 C-tail (words),GST-fused ADRB1 C-tail,interacted similarly
same,interaction of truncated GASP-1 with M1 C-tail (words),GST-fused M1 C-tail,interacted similarly
same,interaction of truncated GASP-1 with DOR C-tail,GST-fused DOR C-tail,interacted similarly
B2,interaction of truncated GASP-1 with ADRB1 C-tail (words),GST-fused ADRB1 C-tail,did not display detectable interactions
same,interaction of truncated GASP-1 with ADRB1 C-tail (words),GST-fused ADRB1 C-tail; listed as 1025–1395,no significant interaction
same,interaction of truncated GASP-1 with M1 C-tail (words),GST-fused M1 C-tail,did not display detectable interactions
same,interaction of truncated GASP-1 with M1 C-tail (words),GST-fused M1 C-tail; listed as 1025–1395,no significant interaction
same,interaction of truncated GASP-1 with DOR C-tail,GST-fused DOR C-tail,interacted only weakly
same,interaction with DOR C-tail relative to full-length GASP-1,"GST-fused DOR C-tail; percent of full-length GASP-1 interaction, three independent experiments",25%
B3,interaction of GASP-2 mutants with ADRB1 C-tail,GST-fused ADRB1 C-tail; compared to wild-type GASP-2,almost no interaction
same,interaction of GASP-2 mutants with CALCR C-tail,GST-fused CALCR C-tail,almost no interaction
same,interaction of GASP-2 mutants with M1 C-tail,GST-fused M1 C-tail; compared to wild-type GASP-2,almost no interaction
B4,interaction with FZ4 C-tail,GST-fused FZ4 C-tail,strong interaction
same,interaction with TGFβ C-tail,[1],no interaction was detected
same,interaction with IGF1 C-tail,[2],no interaction was detected
same,GASP input retained by GPCR C-tails,GST-fused GPCR C-tails; percent of GASP input,> 10%
same,interaction with GPCR C-tails,GST-fused GPCR C-tails; twelve GPCR C-tails,medium to strong interactions
